These results are taken from US20200222518A1 (BOARD OF SUPERVISORS OF LOUISIANA STATE UNIVERSITY AND …, published 2020).

One test addresses T1, Met6 peptide (Candida albicans).
T1 construct: Synthetic 14-mer (GenScript) from the N-terminus of the C. albicans Met6 cell wall protein
T1 peptide: PRIGGQRELKKITEC
Briefly: specificity listed in table; hybridomas screened by anti-peptide ELISA. (In general: In an ELISA, binding on a coated surface is turned into a signal by an enzyme label.)

The target of a further test is T2, Fba peptide (Candida albicans).
T2 construct: Synthetic 14-mer (GenScript) from the N-terminus of C. albicans fructose-bisphosphate aldolase
T2 peptide: YGKDVKDLFDYAQEC
The description is as above.

B1: 2B10C1 (antibody, V domains shown)
VH: QVQLQQPGAEVVRPGASVKVSCKASGYTVSSYWMSWVKQRPEQGLEWIGRIDPYDSETHYNQKFKDKAILTVDKSSSTAYMQLSSLTSEDSAVYYCARTAASFDYWGQGTTLTVSS
VL: DVVMTQTPLSLPVSLGDQASISCRSSQSLVHSNGNSYLHWYLQKPGQSPKLLIYKVSNRFSGVPDRFSGSGSGTDFTLNISRVEAEDLGVYFCSQSTHVPFTFGSGTKLEIK
notes: Mouse hybridoma mAb, IgG1; The entries are 135 AA and 131 AA and their DNA starts with ATG, so they may include the leader peptide; The limits are printed only as drawings and no residues were cut; also called 2810C1
Turning to B1, in the test with Met6 peptide, the binding result is recorded as “binds”.

B2: 2D5F7 (antibody, V domains shown)
VH: QVQLQQSAAELARPGASVKMSCKASGYTFSSYTMHWVKQRPGQGLEWIGYINPSSGYTDYNQKFKDKTTLTADKSSSTAYMQLSSLTSEDSAVYYCARLYDNYDYYAMDYWGQGTSVTVSS
VL: DIVMSQSPSSLAVSAGEKVTMSCKSSQSLLNSRIRKNYLAWYQQKPGQSPKLLIYWASTRESGVPDRFTGSGSGTDFTLTISSVQADDLAVYYCKQSYNLLTFGAGTKLELK
notes: Mouse hybridoma mAb, IgG2b; The entries are 140 AA and 132 AA and their DNA starts with ATG, so they may include the leader peptide; The limits are printed only as drawings and no residues were cut
Consider B2, for which the binding result with Fba peptide was “binds”.
